Data from patent US20050065082.

What was measured:
[1] = target: GST (glutathione S-transferase) [GST: P08515]
[2] = target: GST-BMAL1 (N-terminal GST fusion protein of human BMAL1; BMAL1b was used)
[3] = target: T1, GST-BPL1 (N-terminal GST fusion protein of human BPL1, holocarboxylase synthetase)
T1 chain: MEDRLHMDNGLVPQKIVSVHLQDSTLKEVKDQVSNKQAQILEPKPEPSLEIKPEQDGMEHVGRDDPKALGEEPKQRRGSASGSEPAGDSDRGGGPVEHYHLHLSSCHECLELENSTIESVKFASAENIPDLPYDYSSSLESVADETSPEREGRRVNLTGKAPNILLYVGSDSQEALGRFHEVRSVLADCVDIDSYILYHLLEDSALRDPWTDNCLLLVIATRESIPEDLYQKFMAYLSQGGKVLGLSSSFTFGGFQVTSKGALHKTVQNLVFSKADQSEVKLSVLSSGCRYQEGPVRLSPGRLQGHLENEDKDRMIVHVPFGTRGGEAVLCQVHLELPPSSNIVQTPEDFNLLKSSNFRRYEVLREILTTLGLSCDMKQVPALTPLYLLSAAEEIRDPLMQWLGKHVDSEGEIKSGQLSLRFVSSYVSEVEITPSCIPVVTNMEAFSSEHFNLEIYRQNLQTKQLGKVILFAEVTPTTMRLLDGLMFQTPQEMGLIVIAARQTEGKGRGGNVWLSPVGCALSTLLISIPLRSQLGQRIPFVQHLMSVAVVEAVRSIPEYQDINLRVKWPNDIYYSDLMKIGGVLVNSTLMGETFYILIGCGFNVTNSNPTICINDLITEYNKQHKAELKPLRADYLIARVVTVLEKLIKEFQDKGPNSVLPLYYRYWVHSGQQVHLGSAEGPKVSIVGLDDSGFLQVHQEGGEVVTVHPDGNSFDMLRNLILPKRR

[4] = target: GST-KIAA0596CT (N-terminal GST fusion protein of human KIAA0596CT, the C-terminal region, amino acids 639 to 1217, of KIAA0596) [GST: P08515]
[5] = target: T2, GST-KIAA1491 complete (N-terminal GST-fusion protein of KIAA1491 complete)
T2 chain: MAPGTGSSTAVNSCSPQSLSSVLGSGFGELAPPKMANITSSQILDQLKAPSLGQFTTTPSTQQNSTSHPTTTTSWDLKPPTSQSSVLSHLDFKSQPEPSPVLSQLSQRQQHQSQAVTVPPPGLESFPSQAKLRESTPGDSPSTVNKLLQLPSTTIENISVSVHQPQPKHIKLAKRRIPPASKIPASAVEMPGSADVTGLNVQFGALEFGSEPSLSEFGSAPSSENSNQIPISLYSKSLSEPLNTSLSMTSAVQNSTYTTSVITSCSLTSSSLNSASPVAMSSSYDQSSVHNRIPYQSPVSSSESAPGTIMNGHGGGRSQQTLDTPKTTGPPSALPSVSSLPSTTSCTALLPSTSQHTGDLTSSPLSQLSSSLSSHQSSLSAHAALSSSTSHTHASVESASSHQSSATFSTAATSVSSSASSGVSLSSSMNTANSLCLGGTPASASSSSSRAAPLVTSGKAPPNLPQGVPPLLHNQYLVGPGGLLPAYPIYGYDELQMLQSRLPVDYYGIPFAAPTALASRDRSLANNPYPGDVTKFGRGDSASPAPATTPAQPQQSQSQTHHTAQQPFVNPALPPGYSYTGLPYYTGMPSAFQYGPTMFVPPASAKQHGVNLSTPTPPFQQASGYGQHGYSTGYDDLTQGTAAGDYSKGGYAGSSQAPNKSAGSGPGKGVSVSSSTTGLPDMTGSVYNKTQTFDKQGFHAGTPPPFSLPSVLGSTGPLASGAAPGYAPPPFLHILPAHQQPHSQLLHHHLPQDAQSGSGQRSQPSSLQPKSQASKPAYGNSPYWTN

Sequence of GST-BMAL1 (N-terminal GST fusion protein of human BMAL1; BMAL1b was used) (chain, as listed by the source): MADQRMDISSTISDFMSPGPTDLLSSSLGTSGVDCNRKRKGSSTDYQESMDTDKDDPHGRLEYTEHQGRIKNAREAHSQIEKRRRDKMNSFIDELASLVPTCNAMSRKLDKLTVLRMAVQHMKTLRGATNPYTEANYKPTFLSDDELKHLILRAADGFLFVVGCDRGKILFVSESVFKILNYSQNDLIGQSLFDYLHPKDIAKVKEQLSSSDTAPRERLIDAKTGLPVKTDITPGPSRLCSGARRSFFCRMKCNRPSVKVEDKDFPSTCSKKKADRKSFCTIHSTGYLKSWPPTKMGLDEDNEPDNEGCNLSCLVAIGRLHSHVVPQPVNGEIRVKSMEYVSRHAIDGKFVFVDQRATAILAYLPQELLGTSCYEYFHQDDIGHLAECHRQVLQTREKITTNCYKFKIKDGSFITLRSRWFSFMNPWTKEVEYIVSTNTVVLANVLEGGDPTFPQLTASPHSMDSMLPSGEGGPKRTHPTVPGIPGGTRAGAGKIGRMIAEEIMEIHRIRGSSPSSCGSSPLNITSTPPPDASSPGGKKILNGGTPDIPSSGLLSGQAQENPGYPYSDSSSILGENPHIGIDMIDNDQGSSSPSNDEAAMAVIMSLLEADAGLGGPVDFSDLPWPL

B1: His-JNK3 (activated human JNK3 (JNK3α1) with an N-terminal histidine-tag) (protein)
chain: MSLHFLYYCSEPTLDVKIAFCQGFDKQVDVSYIAKHYNMSKSKVDNQFYSVEVGDSTFTVLKRYQNLKPIGSGAQGIVCAAYDAVLDRNVAIKKLSRPFQNQTHAKRAYRELVLMKCVNHKNIISLLNVFTPQKTLEEFQDVYLVMELMDANLCQVIQMELDHERMSYLLYQMLCGIKHLHSAGIIHRDLKPSNIVVKSDCTLKILDFGLARTAGTSFMMTPYVVTRYYRAPEVILGMGYKENVDIWSVGCIMGEMVRHKILFPGRDYIDQWNKVIEQLGTPCPEFMKKLQPTVRNYVENRPKYAGLTFPKLFPDSLFPADSEHNKLKASQARDLLSKMLVIDPAKRISVDDALQHPYINVWYDPAEVEAPPPQIYDKQLDEREHTIEEWKELIYKEVMNSEEKTKNGVVKGQPSPSAQVQQ
B1 gave a Relative Strength (%) of the phosphorylated GST-c-Jun (1-79) band, 1.0 µg added protein (none added = 100) [1] of 92.7%, a Relative Strength (%) of the phosphorylated GST-c-Jun (1-79) band, 2.0 µg added protein (none added = 100) [1] of 93.6% and a Relative Strength (%) of the phosphorylated GST-c-Jun (1-79) band, 1.0 µg added protein (none added = 100) [2] of 15.3%. The Relative Strength (%) of the phosphorylated GST-c-Jun (1-79) band, 2.0 µg added protein (none added = 100) [2] was 4.7%, the “phosphorylation of GST-BMAL1 by JNK3 (in vitro kinase assay, [γ-32P] ATP, autoradiography)” value [2] was “the phosphorylation of GST-BMAL1 by JNK3 was observed ... the phosphorylation was dependent on the dose of JNK3” and the Relative Strength (%) of the phosphorylated GST-c-Jun (1-79) band, 1.0 µg added protein (none added = 100) [3] was 81.6%. For the same protein, the Relative Strength (%) of the phosphorylated GST-c-Jun (1-79) band, 2.0 µg added protein (none added = 100) [3] was 59.7%, the “phosphorylation of GST-BPL1 by JNK3 (in vitro kinase assay, [γ-32P] ATP, autoradiography)” value [3] was “The phosphorylation of GST-BPL1 by JNK3 was observed. Since the phosphorylation was dependent on the dose of JNK3” and the Relative Strength (%) of the phosphorylated GST-c-Jun (1-79) band, 1.0 µg added protein (none added = 100) [4] was 70.6%. For the same protein, the Relative Strength (%) of the phosphorylated GST-c-Jun (1-79) band, 2.0 µg added protein (none added = 100) [4] was 33.5%, the Relative Strength (%) of the phosphorylated GST-c-Jun (1-79) band, 1.0 µg added protein (none added = 100) [5] was 71.5% and the Relative Strength (%) of the phosphorylated GST-c-Jun (1-79) band, 2.0 µg added protein (none added = 100) [5] was 67.1%. The “phosphorylation of GST-KIAA1491 complete by JNK3 (in vitro kinase assay, [γ-32P] ATP, autoradiography)” value [5] was “GST-KIAA1491 complete were phosphorylated by JNK3 ... the phosphorylation was dependent on the dose of JNK3”.
